Molecular target: T1, recombinant human PCPE-2 (procollagen C-proteinase enhancer 2) fused to a 6 Histidine-tag at the N-terminus (human) (UniProt Q9UKZ9)
T1 sequence: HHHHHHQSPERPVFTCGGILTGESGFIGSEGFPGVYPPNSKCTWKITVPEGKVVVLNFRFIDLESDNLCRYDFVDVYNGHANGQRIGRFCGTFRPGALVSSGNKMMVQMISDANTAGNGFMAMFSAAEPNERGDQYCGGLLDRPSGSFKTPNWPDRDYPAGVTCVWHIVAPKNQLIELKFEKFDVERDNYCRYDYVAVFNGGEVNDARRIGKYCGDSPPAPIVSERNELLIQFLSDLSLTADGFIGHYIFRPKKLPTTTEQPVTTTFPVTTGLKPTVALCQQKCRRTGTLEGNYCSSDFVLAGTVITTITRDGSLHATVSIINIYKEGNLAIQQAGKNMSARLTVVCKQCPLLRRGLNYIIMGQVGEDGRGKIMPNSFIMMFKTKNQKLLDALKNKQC
Assay: SPR competition: BMP-1 (200 nM) co-injected with PCPE-2 (200 nM) over immobilized C-propeptide III carrying PCPE-2

% inhibition: 77%
B1: human BMP-1 (bone morphogenetic protein-1) fused to a C-terminal Flag tag (enzyme, UniProt P13497-2 121-730, looked up, not shown: small tags and cut ends)
chain: AATSRPERVWPDGVIPFVIGGNFTGSQRAVFRQAMRHWEKHTCVTFLERTDEDSYIVFTYRPCGCCSYVGRRGGGPQAISIGKNCDKFGIVVHELGHVVGFWHEHTRPDRDRHVSIVRENIQPGQEYNFLKMEPQEVESLGETYDFDSIMHYARNTFSRGIFLDTIVPKYEVNGVKPPIGQRTRLSKGDIAQARKLYKCPACGETLQDSTGNFSSPEYPNGYSAHMHCVWRISVTPGEKIILNFTSLDLYRSRLCWYDYVEVRDGFWRKAPLRGRFCGSKLPEPIVSTDSRLWVEFRSSSNWVGKGFFAVYEAICGGDVKKDYGHIQSPNYPDDYRPSKVCIWRIQVSEGFHVGLTFQSFEIERHDSCAYDYLEVRDGHSESSTLIGRYCGYEKPDDIKSTSSRLWLKFVSDGSINKAGFAVNFFKEVDECSRPNRGGCEQRCLNTLGSYKCSCDPGYELAPDKRRCEAACGGFLTKLNGSITSPGWPKEYPPNKNCIWQLVAPTQYRISLQFDFFETEGNDVCKYDFVEVRSGLTADSKLHGKFCGSEKPEVITSQYNNMRVEFKSDNTVSKKGFKAHFFSEKRPALQPPRGRPHQLKFRVQKRNRTPQ

From EP4484444A1
